Source: patent US20070036796A1 (ROCHE PALO ALTO, published 2007)
Residue numbers refer to the chain shown, from its start.

B1: <CCR5>Pz03.1C5 (antibody, V domains shown)
VH: QVQLKQSGPGLVRPSQSLSITCTVSGFPLGIFGVHWVRQSPGKGLEWLGVIWKGGNTDYNAAFMSRLRITKDNSKSQVFFRMNSLQTDDTAIYYCAKVNLADAMDYWGQGTSVIVSS
VL: DIQMTQSPASLSASVGETVTITCRASGNIHGYLAWFQQKQGKSPQLLVYNTKTLAEGVPSRFSGSGSGTQFSLKINSLQPEDFGNYYCQHHYDLPRTFGGGTKLEIKR
notes: also called Antibody C; m<CCR5>Pz03.1C5
B2: <CCR5>Pz02.1C11 (antibody, V domains shown)
VH: B1 VH with I31V, T70S
VL: B1 VL with A25S, T53A, S77N, N85I
notes: also called Antibody B

Key:
human CCR5 [1] = target: T1, human CCR5 (human, UniProt P51681 1-352); assay: epitope mapping with alanine mutants of CCR5
T1 construct: whole, on cells; also called CC chemokine receptor CCR5; CD 195
T1 sequence (P51681 whole entry): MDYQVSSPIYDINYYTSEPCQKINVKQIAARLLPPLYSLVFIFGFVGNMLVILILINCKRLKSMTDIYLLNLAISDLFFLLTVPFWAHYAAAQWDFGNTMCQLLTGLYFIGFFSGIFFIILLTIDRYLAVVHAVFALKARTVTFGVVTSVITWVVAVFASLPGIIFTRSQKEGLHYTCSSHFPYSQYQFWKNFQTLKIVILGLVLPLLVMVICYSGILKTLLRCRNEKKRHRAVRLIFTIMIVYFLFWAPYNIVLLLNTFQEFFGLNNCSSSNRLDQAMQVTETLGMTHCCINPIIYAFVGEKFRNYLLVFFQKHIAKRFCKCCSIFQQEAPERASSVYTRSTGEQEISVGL

human CCR5 [2] = target: T1, human CCR5; assay: cell-based or functional assay
human CCR5 [3] = target: T1, human CCR5; assay: cell-based or functional assay; remark: listed apart in the source
human CCR5 [4] = target: T1, human CCR5; assay: cell ELISA on CCR5-expressing cells, hybridoma screening

Binder | binding result (human CCR5 [1]) | IC50, inhibition of HIV growth in human PBMC, JRCSF (p24 ELISA) (human CCR5 [2]) | IC50, inhibition of HIV growth in human PBMC, Nl-Bal (p24 ELISA) (human CCR5 [2]) | IC50, PhenoSenseHIV assay (ViroLogic) using JRCSF strain (human CCR5 [3]) | IC50, cell-cell fusion assay (gp160-expressing HeLa cells with CEM.NKR-CCR5-Luc cells, luciferase) (human CCR5 [3]) | binding result (human CCR5 [4])
B1 | binds | 0.013 µg/mL | 0.029 µg/mL | 0.16 µg/ml | 0.38 µg/mL | 
B2 |  | 0.025 µg/mL | 0.025 µg/mL | 0.17 µg/ml | 0.79 µg/mL | binds
